In the supplement of paper PMC10065799, “High-throughput profiling of sequence recognition by tyrosine kinases and SH2 domains using bacterial peptide display” (eLife, 2023):

Assays:
[1] = target: c-Src SH2; test: SH2 binding enrichment of the phosphorylated peptide, bacterial display (enrichment ratio); higher = better substrate or ligand; peptides without Tyr show the background
[2] = target: SHP2-C SH2; test: as above
[3] = target: Grb2 SH2 (UniProt P62993); test: as above
[4] = target: EPHB2 (UniProt P29323); test: phosphorylation enrichment, bacterial display (enrichment ratio); higher = better substrate or ligand; peptides without Tyr show the background
[5] = system: AncSZ; test: as above
[6] = target: EPHB1 (UniProt P54762); test: as above
[7] = system: c-Abl (mouse); test: as above
[8] = target: FGFR1 (UniProt P11362); test: as above
[9] = target: MERTK (UniProt Q12866); test: as above
[10] = system: Fer (mouse); test: as above
[11] = target: Fyn (UniProt P06241); test: as above
[12] = target: Jak2 (UniProt O60674); test: as above
[13] = system: c-Src; test: as above
[14] = target: Fes (UniProt P07332); test: as above
[15] = target: FGFR3 (UniProt P22607); test: as above
[16] = target: Hck (UniProt P08631); test: as above
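Wherever SH2 binding enrichment of the phosphorylated peptide, bacterial display is given: peptide library displayed on the E. coli surface as eCPX fusions, selected cells deep-sequenced, score is each peptide's frequency after selection divided by its frequency in the input.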
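Wherever phosphorylation enrichment, bacterial display is given: 11-residue human phosphosite peptides and single-mutation variants displayed on the E. coli surface, counted by deep sequencing, each peptide's frequency after selection divided by its frequency in the unselected input library; frequency after pTyr selection over input frequency; kinase dosed for 20-30% of maximal phosphorylation in three min.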

Chain of Grb2 SH2 (P62993 whole entry, looked up): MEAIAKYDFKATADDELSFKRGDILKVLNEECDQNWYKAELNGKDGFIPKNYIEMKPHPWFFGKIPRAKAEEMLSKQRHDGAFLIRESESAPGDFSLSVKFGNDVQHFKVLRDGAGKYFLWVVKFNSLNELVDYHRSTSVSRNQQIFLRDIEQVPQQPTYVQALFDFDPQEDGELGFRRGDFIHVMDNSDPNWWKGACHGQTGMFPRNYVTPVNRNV
Chain of Hck (P08631 whole entry, looked up, the tested form may be a part): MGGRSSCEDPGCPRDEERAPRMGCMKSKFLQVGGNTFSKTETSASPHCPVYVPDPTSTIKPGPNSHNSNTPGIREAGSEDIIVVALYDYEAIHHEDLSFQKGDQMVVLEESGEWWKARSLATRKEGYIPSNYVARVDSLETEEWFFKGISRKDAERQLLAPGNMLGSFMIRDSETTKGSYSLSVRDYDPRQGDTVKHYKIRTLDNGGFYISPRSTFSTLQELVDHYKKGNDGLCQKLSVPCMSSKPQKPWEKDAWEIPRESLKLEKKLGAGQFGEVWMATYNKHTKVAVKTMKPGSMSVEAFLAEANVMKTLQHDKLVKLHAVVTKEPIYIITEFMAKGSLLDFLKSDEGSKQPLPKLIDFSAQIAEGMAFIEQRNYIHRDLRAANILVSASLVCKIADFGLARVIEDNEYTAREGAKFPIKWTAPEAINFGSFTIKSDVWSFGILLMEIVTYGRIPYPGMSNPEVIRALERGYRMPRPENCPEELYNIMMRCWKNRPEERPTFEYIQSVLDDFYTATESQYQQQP
Chain of EPHB2 (P29323 whole entry, looked up): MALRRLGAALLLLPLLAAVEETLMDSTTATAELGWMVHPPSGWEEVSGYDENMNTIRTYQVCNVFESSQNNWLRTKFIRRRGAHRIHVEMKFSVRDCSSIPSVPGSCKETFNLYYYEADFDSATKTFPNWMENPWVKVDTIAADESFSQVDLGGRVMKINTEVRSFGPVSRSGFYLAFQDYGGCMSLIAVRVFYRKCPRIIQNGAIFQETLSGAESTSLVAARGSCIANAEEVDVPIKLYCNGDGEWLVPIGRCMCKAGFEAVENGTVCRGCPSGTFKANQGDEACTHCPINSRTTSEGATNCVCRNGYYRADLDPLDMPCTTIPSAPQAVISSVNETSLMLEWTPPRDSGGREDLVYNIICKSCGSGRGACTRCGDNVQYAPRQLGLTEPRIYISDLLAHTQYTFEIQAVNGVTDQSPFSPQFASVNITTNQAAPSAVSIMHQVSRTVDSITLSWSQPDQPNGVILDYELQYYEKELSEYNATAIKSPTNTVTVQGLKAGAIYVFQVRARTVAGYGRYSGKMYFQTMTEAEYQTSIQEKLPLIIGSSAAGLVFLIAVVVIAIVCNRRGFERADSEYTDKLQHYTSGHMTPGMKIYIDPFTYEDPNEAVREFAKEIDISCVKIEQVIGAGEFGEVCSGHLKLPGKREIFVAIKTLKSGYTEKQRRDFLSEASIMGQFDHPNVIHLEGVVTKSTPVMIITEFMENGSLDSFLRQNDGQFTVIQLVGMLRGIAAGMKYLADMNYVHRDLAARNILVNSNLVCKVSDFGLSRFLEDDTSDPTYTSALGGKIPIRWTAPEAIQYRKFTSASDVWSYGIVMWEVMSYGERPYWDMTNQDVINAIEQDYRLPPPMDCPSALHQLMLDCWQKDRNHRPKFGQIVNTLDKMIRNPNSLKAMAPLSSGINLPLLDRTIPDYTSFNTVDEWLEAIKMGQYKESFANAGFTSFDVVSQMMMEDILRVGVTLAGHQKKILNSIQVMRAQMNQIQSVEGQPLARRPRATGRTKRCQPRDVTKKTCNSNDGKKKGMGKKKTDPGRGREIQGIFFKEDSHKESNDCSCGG
Chain of FGFR3 (P22607 whole entry, looked up): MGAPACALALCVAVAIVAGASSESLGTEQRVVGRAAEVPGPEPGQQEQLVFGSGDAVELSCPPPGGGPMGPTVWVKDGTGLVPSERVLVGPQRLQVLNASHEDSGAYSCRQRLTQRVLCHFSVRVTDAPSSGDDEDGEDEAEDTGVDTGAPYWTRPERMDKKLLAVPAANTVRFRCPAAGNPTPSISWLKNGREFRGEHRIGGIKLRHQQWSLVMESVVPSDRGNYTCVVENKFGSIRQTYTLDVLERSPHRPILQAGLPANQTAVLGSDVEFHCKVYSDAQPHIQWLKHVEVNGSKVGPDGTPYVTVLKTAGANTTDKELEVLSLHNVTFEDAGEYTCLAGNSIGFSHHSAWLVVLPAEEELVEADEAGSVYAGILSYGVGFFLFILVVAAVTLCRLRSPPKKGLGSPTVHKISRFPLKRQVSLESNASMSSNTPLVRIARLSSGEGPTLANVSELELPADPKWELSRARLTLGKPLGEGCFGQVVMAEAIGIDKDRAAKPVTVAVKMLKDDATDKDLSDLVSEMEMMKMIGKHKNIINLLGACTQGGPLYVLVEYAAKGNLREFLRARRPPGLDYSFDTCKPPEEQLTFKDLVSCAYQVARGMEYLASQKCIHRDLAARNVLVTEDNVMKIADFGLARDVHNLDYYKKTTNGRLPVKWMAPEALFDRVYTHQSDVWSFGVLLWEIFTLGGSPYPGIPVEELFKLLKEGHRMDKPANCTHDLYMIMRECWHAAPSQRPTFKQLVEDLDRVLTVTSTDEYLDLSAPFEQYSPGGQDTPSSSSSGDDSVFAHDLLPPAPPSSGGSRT
Chain of FGFR1 (P11362 whole entry, looked up): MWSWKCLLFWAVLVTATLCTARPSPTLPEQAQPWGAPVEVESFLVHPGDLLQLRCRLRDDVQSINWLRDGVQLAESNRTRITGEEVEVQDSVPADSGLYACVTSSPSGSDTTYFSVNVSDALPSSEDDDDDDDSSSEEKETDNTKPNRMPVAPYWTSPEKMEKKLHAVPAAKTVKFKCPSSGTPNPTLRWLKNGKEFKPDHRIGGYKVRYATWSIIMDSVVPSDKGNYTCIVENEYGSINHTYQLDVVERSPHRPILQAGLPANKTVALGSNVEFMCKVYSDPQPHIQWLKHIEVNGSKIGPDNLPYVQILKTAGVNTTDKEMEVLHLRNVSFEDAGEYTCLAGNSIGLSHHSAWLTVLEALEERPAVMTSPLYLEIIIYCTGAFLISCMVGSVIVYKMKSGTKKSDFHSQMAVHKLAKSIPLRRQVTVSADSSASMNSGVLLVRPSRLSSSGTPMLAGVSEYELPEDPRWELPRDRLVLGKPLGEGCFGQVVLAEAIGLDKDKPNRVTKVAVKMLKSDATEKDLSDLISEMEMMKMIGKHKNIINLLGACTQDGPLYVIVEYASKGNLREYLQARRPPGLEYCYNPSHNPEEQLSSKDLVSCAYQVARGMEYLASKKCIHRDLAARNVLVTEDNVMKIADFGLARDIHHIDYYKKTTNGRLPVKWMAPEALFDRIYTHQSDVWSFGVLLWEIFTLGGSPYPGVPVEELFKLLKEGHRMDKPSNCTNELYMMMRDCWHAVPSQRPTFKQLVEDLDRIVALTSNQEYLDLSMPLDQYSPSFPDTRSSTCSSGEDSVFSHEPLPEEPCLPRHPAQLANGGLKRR
Chain of MERTK (Q12866 whole entry, looked up): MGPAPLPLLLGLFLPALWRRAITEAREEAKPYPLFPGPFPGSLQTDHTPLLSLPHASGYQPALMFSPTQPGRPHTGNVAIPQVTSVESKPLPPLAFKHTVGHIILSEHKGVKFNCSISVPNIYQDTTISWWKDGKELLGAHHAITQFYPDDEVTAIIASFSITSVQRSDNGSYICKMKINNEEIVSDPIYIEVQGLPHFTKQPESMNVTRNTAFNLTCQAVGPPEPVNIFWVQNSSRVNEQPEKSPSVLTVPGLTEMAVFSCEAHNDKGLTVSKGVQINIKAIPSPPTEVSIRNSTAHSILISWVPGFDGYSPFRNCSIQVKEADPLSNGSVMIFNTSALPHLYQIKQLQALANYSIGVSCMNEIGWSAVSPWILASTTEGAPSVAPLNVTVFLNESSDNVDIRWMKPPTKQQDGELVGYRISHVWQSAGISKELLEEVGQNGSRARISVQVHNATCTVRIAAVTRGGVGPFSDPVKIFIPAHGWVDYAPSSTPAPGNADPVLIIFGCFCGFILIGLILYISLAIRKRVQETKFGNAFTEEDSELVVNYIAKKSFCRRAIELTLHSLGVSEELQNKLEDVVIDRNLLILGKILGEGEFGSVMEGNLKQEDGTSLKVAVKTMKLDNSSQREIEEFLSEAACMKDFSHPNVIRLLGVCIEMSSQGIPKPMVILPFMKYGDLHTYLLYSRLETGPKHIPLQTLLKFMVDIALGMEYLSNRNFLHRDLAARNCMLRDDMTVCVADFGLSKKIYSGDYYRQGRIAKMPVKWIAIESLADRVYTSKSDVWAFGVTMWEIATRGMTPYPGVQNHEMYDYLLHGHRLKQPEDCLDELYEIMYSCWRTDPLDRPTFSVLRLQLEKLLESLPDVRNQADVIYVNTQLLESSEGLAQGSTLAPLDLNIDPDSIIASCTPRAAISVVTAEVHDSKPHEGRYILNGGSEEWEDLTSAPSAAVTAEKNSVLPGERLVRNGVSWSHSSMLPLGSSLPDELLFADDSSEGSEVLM
Chain of Fyn (P06241 whole entry, looked up): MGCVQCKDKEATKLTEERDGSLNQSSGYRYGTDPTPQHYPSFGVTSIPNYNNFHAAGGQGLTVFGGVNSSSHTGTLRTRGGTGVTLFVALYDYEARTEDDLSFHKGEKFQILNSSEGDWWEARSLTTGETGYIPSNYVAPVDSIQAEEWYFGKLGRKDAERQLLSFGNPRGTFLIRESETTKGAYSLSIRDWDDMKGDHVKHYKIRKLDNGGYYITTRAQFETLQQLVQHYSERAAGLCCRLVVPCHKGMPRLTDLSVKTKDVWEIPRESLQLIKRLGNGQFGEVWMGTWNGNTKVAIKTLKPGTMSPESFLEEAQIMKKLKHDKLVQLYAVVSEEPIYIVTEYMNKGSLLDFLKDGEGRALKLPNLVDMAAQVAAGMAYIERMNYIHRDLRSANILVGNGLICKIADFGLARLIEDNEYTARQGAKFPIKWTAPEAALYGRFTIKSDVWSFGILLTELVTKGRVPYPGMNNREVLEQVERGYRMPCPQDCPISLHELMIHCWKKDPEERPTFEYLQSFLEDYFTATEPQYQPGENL

With LMIKEYLTKEL [BAG3_Y457_E455K] the SH2 binding enrichment [1] was 0.621, the SH2 binding enrichment [2] was 1 and the SH2 binding enrichment [3] was 1.03. For the same sequence, the phosphorylation enrichment [4] was 0.612, the phosphorylation enrichment [5] was 0.867 and the phosphorylation enrichment [6] was 0.524. For the same sequence, the phosphorylation enrichment [7] was 0.666, the phosphorylation enrichment [8] was 0.437 and the phosphorylation enrichment [9] was 0.411. The phosphorylation enrichment [10] was 0.491, the phosphorylation enrichment [11] was 0.469 and the phosphorylation enrichment [12] was 0.896. For the same sequence, the phosphorylation enrichment [13] was 0.353, the phosphorylation enrichment [14] was 1.36 and the phosphorylation enrichment [15] was 0.72. The phosphorylation enrichment [16] was 0.571.

LMLVLYGRIFR [HTR1A_Y215] was tested, and the SH2 binding enrichment [1] was 1.42, the SH2 binding enrichment [2] was 1.25 and the SH2 binding enrichment [3] was 1.54. The phosphorylation enrichment [4] was 0.958, the phosphorylation enrichment [5] was 1.84 and the phosphorylation enrichment [6] was 0.646. For the same sequence, the phosphorylation enrichment [7] was 0.791, the phosphorylation enrichment [8] was 0.372 and the phosphorylation enrichment [9] was 0.475. It also gave a phosphorylation enrichment [10] of 0.768, a phosphorylation enrichment [11] of 0.715 and a phosphorylation enrichment [12] of 1.48. It also gave a phosphorylation enrichment [13] of 0.644, a phosphorylation enrichment [14] of 1.24 and a phosphorylation enrichment [15] of 0.809. It also gave a phosphorylation enrichment [16] of 0.495.

Work on LNECHYGALIG [BPGM_Y92_R90C] yielded an SH2 binding enrichment [1] of 0.334, an SH2 binding enrichment [2] of 0.446 and an SH2 binding enrichment [3] of 0.681. The phosphorylation enrichment [4] was 0.878, the phosphorylation enrichment [5] was 0.996 and the phosphorylation enrichment [6] was 0.682. The phosphorylation enrichment [7] was 1.4, the phosphorylation enrichment [8] was 0.701 and the phosphorylation enrichment [9] was 0.741. The phosphorylation enrichment [10] was 1.35, the phosphorylation enrichment [11] was 4.07 and the phosphorylation enrichment [12] was 0.885. It also gave a phosphorylation enrichment [13] of 3.61, a phosphorylation enrichment [14] of 1.38 and a phosphorylation enrichment [15] of 0.886. It also gave a phosphorylation enrichment [16] of 2.93.

With LNERHYGALIG [BPGM_Y92] the SH2 binding enrichment [1] was 0.613, the SH2 binding enrichment [2] was 0.74 and the SH2 binding enrichment [3] was 0.871. The phosphorylation enrichment [4] was 0.469, the phosphorylation enrichment [5] was 0.534 and the phosphorylation enrichment [6] was 0.319. It also gave a phosphorylation enrichment [7] of 0.461, a phosphorylation enrichment [8] of 0.42 and a phosphorylation enrichment [9] of 0.536. It also gave a phosphorylation enrichment [10] of 0.459, a phosphorylation enrichment [11] of 0.514 and a phosphorylation enrichment [12] of 0.571. For the same sequence, the phosphorylation enrichment [13] was 0.639, the phosphorylation enrichment [14] was 0.609 and the phosphorylation enrichment [15] was 0.47. For the same sequence, the phosphorylation enrichment [16] was 0.561.

In the case of LNSFIYSLRNR [OR1A1_Y288_P285S], the SH2 binding enrichment [1] was 0.59, the SH2 binding enrichment [2] was 0.578 and the SH2 binding enrichment [3] was 0.732. It also gave a phosphorylation enrichment [4] of 0.653, a phosphorylation enrichment [5] of 1.3 and a phosphorylation enrichment [6] of 0.617. It also gave a phosphorylation enrichment [7] of 0.866, a phosphorylation enrichment [8] of 0.618 and a phosphorylation enrichment [9] of 0.733. For the same sequence, the phosphorylation enrichment [10] was 0.693, the phosphorylation enrichment [11] was 2.42 and the phosphorylation enrichment [12] was 1.02. For the same sequence, the phosphorylation enrichment [13] was 4.01, the phosphorylation enrichment [14] was 2.02 and the phosphorylation enrichment [15] was 0.671. It also gave a phosphorylation enrichment [16] of 3.1.

For LPHVIYCRLWR [SMAD2_Y128], the SH2 binding enrichment [1] was 0.679, the SH2 binding enrichment [2] was 0.723 and the SH2 binding enrichment [3] was 0.991. For the same sequence, the phosphorylation enrichment [4] was 0.758, the phosphorylation enrichment [5] was 1.05 and the phosphorylation enrichment [6] was 1.76. For the same sequence, the phosphorylation enrichment [7] was 1.47, the phosphorylation enrichment [8] was 0.414 and the phosphorylation enrichment [9] was 0.871. For the same sequence, the phosphorylation enrichment [10] was 0.434, the phosphorylation enrichment [11] was 1.66 and the phosphorylation enrichment [12] was 0.822. For the same sequence, the phosphorylation enrichment [13] was 2.05, the phosphorylation enrichment [14] was 0.814 and the phosphorylation enrichment [15] was 0.555. For the same sequence, the phosphorylation enrichment [16] was 2.31.

With LPKVSCVKAID [GLRA1_Y307_Y307C] the SH2 binding enrichment [1] was 0.697, the SH2 binding enrichment [2] was 0.35 and the SH2 binding enrichment [3] was 0.713. It also gave a phosphorylation enrichment [4] of 0.711, a phosphorylation enrichment [5] of 1.19 and a phosphorylation enrichment [6] of 0.794. It also gave a phosphorylation enrichment [7] of 0.803, a phosphorylation enrichment [8] of 0.734 and a phosphorylation enrichment [9] of 0.501. For the same sequence, the phosphorylation enrichment [10] was 0.577, the phosphorylation enrichment [11] was 0.655 and the phosphorylation enrichment [12] was 0.945. The phosphorylation enrichment [13] was 0.386, the phosphorylation enrichment [14] was 1.38 and the phosphorylation enrichment [15] was 1.14. The phosphorylation enrichment [16] was 0.695.

Work on LPKVSYVKAID [GLRA1_Y307] yielded an SH2 binding enrichment [1] of 0.459, an SH2 binding enrichment [2] of 0.768 and an SH2 binding enrichment [3] of 0.868. It also gave a phosphorylation enrichment [4] of 0.411, a phosphorylation enrichment [5] of 0.629 and a phosphorylation enrichment [6] of 0.402. The phosphorylation enrichment [7] was 0.444, the phosphorylation enrichment [8] was 0.423 and the phosphorylation enrichment [9] was 0.542. For the same sequence, the phosphorylation enrichment [10] was 0.34, the phosphorylation enrichment [11] was 0.391 and the phosphorylation enrichment [12] was 0.563. For the same sequence, the phosphorylation enrichment [13] was 0.338, the phosphorylation enrichment [14] was 0.652 and the phosphorylation enrichment [15] was 0.433. It also gave a phosphorylation enrichment [16] of 0.434.

LPPGTYPSDFT [UNC5B_Y511_A516T] gave an SH2 binding enrichment [1] of 0.445, an SH2 binding enrichment [2] of 0.533 and an SH2 binding enrichment [3] of 0.885. The phosphorylation enrichment [4] was 0.536, the phosphorylation enrichment [5] was 1.58 and the phosphorylation enrichment [6] was 0.694. The phosphorylation enrichment [7] was 1.78, the phosphorylation enrichment [8] was 0.717 and the phosphorylation enrichment [9] was 1.04. The phosphorylation enrichment [10] was 0.403, the phosphorylation enrichment [11] was 0.82 and the phosphorylation enrichment [12] was 0.571. It also gave a phosphorylation enrichment [13] of 0.697, a phosphorylation enrichment [14] of 1.25 and a phosphorylation enrichment [15] of 0.85. The phosphorylation enrichment [16] was 0.613.

In the case of LQTYHYHGHSM [PDHA1_Y289_R288H], the SH2 binding enrichment [1] was 1.29, the SH2 binding enrichment [2] was 2 and the SH2 binding enrichment [3] was 1.36. The phosphorylation enrichment [4] was 0.636, the phosphorylation enrichment [5] was 0.974 and the phosphorylation enrichment [6] was 0.689. For the same sequence, the phosphorylation enrichment [7] was 0.559, the phosphorylation enrichment [8] was 1.16 and the phosphorylation enrichment [9] was 0.911. For the same sequence, the phosphorylation enrichment [10] was 0.75, the phosphorylation enrichment [11] was 0.671 and the phosphorylation enrichment [12] was 1.52. For the same sequence, the phosphorylation enrichment [13] was 0.916, the phosphorylation enrichment [14] was 0.943 and the phosphorylation enrichment [15] was 0.963. It also gave a phosphorylation enrichment [16] of 0.742.

LRNIDYHRLDG [ATRX_Y2083_Y2084H] was tested, and the SH2 binding enrichment [1] was 0.714, the SH2 binding enrichment [2] was 1.25 and the SH2 binding enrichment [3] was 0.725. The phosphorylation enrichment [4] was 0.405, the phosphorylation enrichment [5] was 0.497 and the phosphorylation enrichment [6] was 0.42. For the same sequence, the phosphorylation enrichment [7] was 0.521, the phosphorylation enrichment [8] was 0.511 and the phosphorylation enrichment [9] was 0.379. For the same sequence, the phosphorylation enrichment [10] was 0.571, the phosphorylation enrichment [11] was 0.342 and the phosphorylation enrichment [12] was 0.632. It also gave a phosphorylation enrichment [13] of 0.297, a phosphorylation enrichment [14] of 0.606 and a phosphorylation enrichment [15] of 0.617. The phosphorylation enrichment [16] was 0.33.

LRVKMYNFLRS [ADGRG7_Y760] gave an SH2 binding enrichment [1] of 1.1, an SH2 binding enrichment [2] of 0.623 and an SH2 binding enrichment [3] of 1.24. It also gave a phosphorylation enrichment [4] of 2.15, a phosphorylation enrichment [5] of 2.63 and a phosphorylation enrichment [6] of 1.41. For the same sequence, the phosphorylation enrichment [7] was 1.25, the phosphorylation enrichment [8] was 1.71 and the phosphorylation enrichment [9] was 1.19. The phosphorylation enrichment [10] was 1.08, the phosphorylation enrichment [11] was 1.75 and the phosphorylation enrichment [12] was 1.47. The phosphorylation enrichment [13] was 0.868, the phosphorylation enrichment [14] was 3.22 and the phosphorylation enrichment [15] was 2.58. It also gave a phosphorylation enrichment [16] of 1.59.

Sequence LSDGPYSNPFE [EPOR_Y485_YF] has an SH2 binding enrichment [1] of 1.91, an SH2 binding enrichment [2] of 0.486 and an SH2 binding enrichment [3] of 0.82. It also gave a phosphorylation enrichment [4] of 0.628, a phosphorylation enrichment [5] of 1.47 and a phosphorylation enrichment [6] of 0.547. It also gave a phosphorylation enrichment [7] of 0.701, a phosphorylation enrichment [8] of 0.491 and a phosphorylation enrichment [9] of 0.534. The phosphorylation enrichment [10] was 0.822, the phosphorylation enrichment [11] was 1.77 and the phosphorylation enrichment [12] was 0.862. For the same sequence, the phosphorylation enrichment [13] was 0.856, the phosphorylation enrichment [14] was 1.16 and the phosphorylation enrichment [15] was 0.614. It also gave a phosphorylation enrichment [16] of 0.843.

Work on LSDGPYSSPYE [EPOR_Y485_N487S] yielded an SH2 binding enrichment [1] of 3.98, an SH2 binding enrichment [2] of 0.762 and an SH2 binding enrichment [3] of 0.808. The phosphorylation enrichment [4] was 0.95, the phosphorylation enrichment [5] was 2.3 and the phosphorylation enrichment [6] was 1.2. It also gave a phosphorylation enrichment [7] of 1.18, a phosphorylation enrichment [8] of 0.421 and a phosphorylation enrichment [9] of 0.523. For the same sequence, the phosphorylation enrichment [10] was 0.831, the phosphorylation enrichment [11] was 0.882 and the phosphorylation enrichment [12] was 1.2. For the same sequence, the phosphorylation enrichment [13] was 1.09, the phosphorylation enrichment [14] was 1.39 and the phosphorylation enrichment [15] was 1.61. For the same sequence, the phosphorylation enrichment [16] was 0.739.
